The values that follow come from paper PMC5663869.

One experiment concerns the target H3T6C (1-21). Description: ITC; iTC200, 25 °C, stirring 800 rpm; sample 150–260 μM, titrant 1.5–4 mM; one-site binding model; the figure legends on these data give mean ± S.D. (n = 4). Background: ITC needs no label: the signal is the heat of the interaction.
Another experiment deals with H3K14ac T6C. Described as above.
For another experiment, the target named is H3K4me1 (1-21). The description is as above.
The target of a further experiment is H3K4me2 (1-21). The experiment is described as above.
The target of the next experiment is H3K4me3 (1-21). Described as above.
In another experiment the target is H3K4me1K14ac. Described as above.
In the next experiment the target is H3K4me2K14ac. Described as above.
A further experiment deals with H3K4me3K14ac. Described as above.
For experiment [1], the target named is BAZ2B PHD–BRD (human) (UniProt Q9UIF8). Description: ITC; iTC200, 25 °C; 150–260 μM sample, 1.5–4 mM titrant; one-site binding model; n = 4.
The target of another experiment is BAZ2B PHD domain (human) (UniProt Q9UIF8). The experiment is described as above.
Experiment [2] has as its target BAZ2B PHD–BRD (human) (UniProt Q9UIF8). Kind of experiment: NMR titration; H3K14ac titrated into 15N-labelled PHD–BRD at peptide/protein ratios 0.5, 1, 1.5, 2 and 4; Kd estimated apart from BRD and from PHD residues.

Sequence of BAZ2B PHD–BRD (human) (Q9UIF8 whole entry, the tested form may be a part): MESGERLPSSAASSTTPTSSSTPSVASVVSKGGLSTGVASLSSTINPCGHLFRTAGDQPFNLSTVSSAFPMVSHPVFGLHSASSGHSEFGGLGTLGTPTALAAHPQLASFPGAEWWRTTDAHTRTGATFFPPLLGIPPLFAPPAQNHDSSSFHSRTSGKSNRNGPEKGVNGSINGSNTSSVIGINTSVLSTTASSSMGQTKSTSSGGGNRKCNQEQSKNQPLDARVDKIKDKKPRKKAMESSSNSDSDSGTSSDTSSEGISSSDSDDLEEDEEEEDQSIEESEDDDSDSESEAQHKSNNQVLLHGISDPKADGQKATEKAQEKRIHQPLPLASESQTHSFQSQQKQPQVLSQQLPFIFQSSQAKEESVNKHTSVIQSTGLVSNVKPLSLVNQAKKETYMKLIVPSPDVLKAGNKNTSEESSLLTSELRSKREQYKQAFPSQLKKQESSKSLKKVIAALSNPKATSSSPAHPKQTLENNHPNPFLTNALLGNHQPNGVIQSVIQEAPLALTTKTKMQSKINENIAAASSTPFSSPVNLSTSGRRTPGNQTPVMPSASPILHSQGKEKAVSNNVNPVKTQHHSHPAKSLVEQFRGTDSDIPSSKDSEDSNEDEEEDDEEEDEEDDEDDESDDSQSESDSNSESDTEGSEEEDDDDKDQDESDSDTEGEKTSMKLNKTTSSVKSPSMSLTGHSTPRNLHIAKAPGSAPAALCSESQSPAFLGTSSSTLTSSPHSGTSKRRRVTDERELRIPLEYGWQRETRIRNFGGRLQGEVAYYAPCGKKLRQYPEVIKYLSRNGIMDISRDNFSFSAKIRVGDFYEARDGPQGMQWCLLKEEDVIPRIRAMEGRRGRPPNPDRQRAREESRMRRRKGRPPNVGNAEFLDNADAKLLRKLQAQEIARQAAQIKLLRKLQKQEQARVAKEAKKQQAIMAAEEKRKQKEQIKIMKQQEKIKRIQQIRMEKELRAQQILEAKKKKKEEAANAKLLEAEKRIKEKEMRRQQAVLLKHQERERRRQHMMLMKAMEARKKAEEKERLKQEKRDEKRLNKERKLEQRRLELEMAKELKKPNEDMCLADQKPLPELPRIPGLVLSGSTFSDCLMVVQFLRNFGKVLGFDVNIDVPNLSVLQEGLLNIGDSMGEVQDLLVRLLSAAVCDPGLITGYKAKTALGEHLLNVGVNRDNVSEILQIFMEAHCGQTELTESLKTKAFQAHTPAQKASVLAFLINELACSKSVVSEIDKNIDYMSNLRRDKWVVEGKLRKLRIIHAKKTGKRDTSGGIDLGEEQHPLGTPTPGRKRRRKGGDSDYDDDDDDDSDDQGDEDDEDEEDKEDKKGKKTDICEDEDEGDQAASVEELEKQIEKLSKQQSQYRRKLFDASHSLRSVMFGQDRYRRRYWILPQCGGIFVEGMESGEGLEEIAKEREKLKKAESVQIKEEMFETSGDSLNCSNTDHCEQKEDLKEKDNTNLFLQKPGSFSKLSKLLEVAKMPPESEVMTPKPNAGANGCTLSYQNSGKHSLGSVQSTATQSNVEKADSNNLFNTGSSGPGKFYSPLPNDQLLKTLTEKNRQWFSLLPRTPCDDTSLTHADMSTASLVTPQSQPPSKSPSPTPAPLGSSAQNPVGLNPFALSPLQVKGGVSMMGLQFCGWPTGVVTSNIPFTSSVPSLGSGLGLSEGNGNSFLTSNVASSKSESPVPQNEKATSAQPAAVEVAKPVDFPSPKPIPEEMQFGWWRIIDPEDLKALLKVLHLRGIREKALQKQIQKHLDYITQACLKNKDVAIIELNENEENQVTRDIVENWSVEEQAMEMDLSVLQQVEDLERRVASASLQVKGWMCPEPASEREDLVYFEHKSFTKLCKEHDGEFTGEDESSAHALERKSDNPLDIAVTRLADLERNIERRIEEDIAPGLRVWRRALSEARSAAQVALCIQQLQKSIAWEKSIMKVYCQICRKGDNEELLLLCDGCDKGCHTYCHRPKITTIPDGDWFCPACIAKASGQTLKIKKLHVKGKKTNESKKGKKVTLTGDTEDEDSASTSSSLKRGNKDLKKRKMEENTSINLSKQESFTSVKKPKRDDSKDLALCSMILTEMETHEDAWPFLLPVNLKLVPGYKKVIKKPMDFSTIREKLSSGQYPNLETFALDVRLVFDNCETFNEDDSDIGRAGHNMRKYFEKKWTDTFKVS
Sequence of BAZ2B PHD domain (human) (Q9UIF8 whole entry, the tested form may be a part): as above
Sequence of BAZ2B PHD-BRD WT (Q9UIF8 whole entry, the tested form may be a part): as above
Sequence of H3T6C (1-21) (peptide, as listed by the source T6C (stands in the printed letters)): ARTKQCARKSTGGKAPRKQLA

In general, Kd refers to a measure of binding affinity in units of concentration. As a reminder, the stoichiometry N is a count of units in the complex or per binding partner. With “BAZ2B PHD WT (from UniProt Q9UIF8 1-2168) (domain or fragment)”, the Kd with H3T6C (1-21) is 33.2 µM; in the experiment with H3K14ac T6C, 27 µM; with H3K4me1 (1-21) it was 10.2 µM; with H3K4me2 (1-21), 12.4 µM; with H3K4me3 (1-21), 23.9 µM. The stoichiometry N amounted to 0.74 with H3T6C (1-21); 4.86 with H3K14ac T6C; 0.82 with H3K4me1 (1-21); 0.71 in the experiment with H3K4me2 (1-21); 0.73 with H3K4me3 (1-21).
For “BAZ2B PHD-BRD WT (from UniProt Q9UIF8 1-2168) (domain or fragment)”, the Kd in the experiment with H3T6C (1-21) amounted to 148 µM; with H3K14ac T6C, 50.4 µM; with H3K4me1K14ac, 26.9 µM; in the experiment with H3K4me1 (1-21), 88.4 µM; with H3K4me2 (1-21), 123 µM; with H3K4me2K14ac it was 18.9 µM. For the same substance, the equilibrium dissociation constant (Kd) with H3K4me3K14ac is 6.99 µM; with H3K4me3 (1-21) it was 130 µM. In addition, the stoichiometry N with H3T6C (1-21) came to 1.59; in the experiment with H3K14ac T6C, 2.92; in the experiment with H3K4me1K14ac it was 0.54; with H3K4me1 (1-21), 1.94; in the experiment with H3K4me2 (1-21), 1.76; with H3K4me2K14ac, 0.45. For the same substance, the stoichiometry N with H3K4me3K14ac was 0.54; in the experiment with H3K4me3 (1-21) it was 1.89.
Turning to “histone H3(11–21aa) peptide (from UniProt P68431 12-22)”, the results for the Kd with BAZ2B PHD–BRD (human) [1] and with BAZ2B PHD domain (human) were greater than 2000 µM and greater than 4000 µM, respectively.
“histone H3(1–21aa)K14ac peptide (from UniProt P68431 2-22)”: in the experiment with BAZ2B PHD–BRD (human) [2], the Kd estimated from BRD residues is greater than 8 µM and the Kd estimated from PHD residues was greater than 190 µM.
Turning to “histone H3(1–10aa) peptide (from UniProt P68431 2-11)”, the results for the Kd in the experiment with BAZ2B PHD–BRD (human) [1] and with BAZ2B PHD domain (human) were 115 µM and 23.1 µM, respectively.
For “histone H3(1–21aa) peptide, unmodified (from UniProt P68431 2-22)”, in that order: 54 µM and 5.78 µM.
